According to patent publication US20180360907A1:

Target: CCR5 on human monocytes (human) (UniProt P51681)
Test: cell-based or functional assay

## human CCL4 (MIP-1β) (from UniProt P13236 24-92) (ligand)
  chemotactic index of human monocytes, without RAP-103 (times over control): 2
